T1: La (LARP3), native (human, UniProt P05455 1-408)
T1 sequence: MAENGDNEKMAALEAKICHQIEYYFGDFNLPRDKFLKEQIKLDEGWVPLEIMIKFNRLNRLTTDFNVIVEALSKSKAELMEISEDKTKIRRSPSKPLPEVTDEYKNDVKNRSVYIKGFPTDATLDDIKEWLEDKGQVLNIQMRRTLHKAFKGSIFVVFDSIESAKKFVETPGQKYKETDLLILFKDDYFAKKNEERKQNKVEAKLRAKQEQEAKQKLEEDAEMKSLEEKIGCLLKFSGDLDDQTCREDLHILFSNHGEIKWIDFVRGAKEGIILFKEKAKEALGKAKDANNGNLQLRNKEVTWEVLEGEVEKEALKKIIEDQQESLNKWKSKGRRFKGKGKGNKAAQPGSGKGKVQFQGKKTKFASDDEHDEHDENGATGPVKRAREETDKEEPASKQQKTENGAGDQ


Target: T1, La (LARP3), native
Experiment: EMSA; most RNA (22 nM) bound at 200-400 nM La; titration 6-700 nM; L37/L22 EMSA: 1x binding buffer (from 2x: 3 mM MgCl2, 300 mM NaCl, 1 mM EDTA, 0.1% Nonidet P-40), i.e. 1.5 mM MgCl2, 150 mM NaCl, 0.5 mM EDTA, 0.05% NP-40; pH not stated; 22 nM RNA, 40 ul, 10 min at room temperature; native 10% PAGE in TBE. CCND1 EMSA as in ref 42
Conditions: protein: recombinant; tags: His6; label: 3'-Cy3; weak secondary structure

Binder | binding result
UUCCGGUCUCUUUGGCCUCGCCGGUAGAAGCAAGAUG (ssRNA) [L37 TOP RNA] | binds
CUCCUCUGCCGCCAUGGCUCCUGUGAAAAAGCUUGUG (ssRNA) [L22 TOP RNA] | binds
